{"source": "paper PMC4051505", "about": "“Crystal structure of human CRMP-4: correction of intensities for lattice-translocation disorder” (Acta Crystallographica Section D: Biological Crystallography, 2014)", "proteins": {"B1": {"name": "truncated human CRMP-4 (CRMP-4 ΔC), residues 13-490 (domain or fragment)", "chain": "not shown", "notes": "CRMP-4 (DPYSL3), human, residues 13-490 of NP_001378.1; The His tag was removed with TEV protease; A serine from the TEV cleavage site is visible in chains C and D of the structure; Judging from the primer, Ser-Met probably remains before residue 13; Tetramer in the crystal, lower oligomers in solution; also called CRMP-4 ΔC (13-490); source: E. coli BL21(DE3)pLysS, purified (Ni-NTA, TEV …)"}, "B2": {"name": "human CRMP-4 (collapsin response mediator protein 4), full-length, residues 1-570 (natural protein)", "chain": "not shown", "notes": "CRMP-4 (DPYSL3), human, residues 1-570 of NP_001378.1; only residues 12-496/497 (crystal form A) or 12-499 (form B) are resolved in the electron density; The vector pNIC28-Bsa4 extends the coding region by 23 N-terminal residues (hexahistidine tag and TEV site); The tag was deliberately not cleaved for the full-length protein; Homotetramer in both crystal forms and in solution; also called …"}}, "key": {"[1]": {"molecular_target": "the molecule itself", "test": "crystal structure; CRMP-4 ΔC (13-490), space group P21; 30%(w/v) PEG 3350, 100 mM sodium tartrate, 100 mM bis-tris propane pH 6.5; protein 18 mg/ml; data at 100 K"}, "[2]": {"molecular_target": "the molecule itself", "test": "crystal structure; CRMP-4 (1-570) crystal form A, space group P21, twinned; 15%(w/v) PEG 6000, 100 mM Na HEPES pH 7.5, 100 mM KCl; protein 15 mg/ml; data at 100 K"}}, "data": [{"protein": "B1", "values": [{"measurement": "stoichiometry N", "setting": "[1]", "result": 4}]}, {"protein": "B2", "values": [{"measurement": "stoichiometry N", "setting": "[2]", "result": 4}]}]}
